Entries after “also recorded” stand apart in the source; their conditions may differ. Values belong to the molecule of their own block, whether it stands above or below them. Where a SMILES comes first, the peptide text is derived from it. Where no end group is shown, it is not given here.
Assays:
PTH1R [1] = target: T1, PTH1R (Homo sapiens, UniProt Q03431); experiment: Ligand-stimulated cAMP accumulation in HKrk-B7 cells; format: cell-based; set-up: expressed in transfected cells
T1 sequence (Q03431 27-593): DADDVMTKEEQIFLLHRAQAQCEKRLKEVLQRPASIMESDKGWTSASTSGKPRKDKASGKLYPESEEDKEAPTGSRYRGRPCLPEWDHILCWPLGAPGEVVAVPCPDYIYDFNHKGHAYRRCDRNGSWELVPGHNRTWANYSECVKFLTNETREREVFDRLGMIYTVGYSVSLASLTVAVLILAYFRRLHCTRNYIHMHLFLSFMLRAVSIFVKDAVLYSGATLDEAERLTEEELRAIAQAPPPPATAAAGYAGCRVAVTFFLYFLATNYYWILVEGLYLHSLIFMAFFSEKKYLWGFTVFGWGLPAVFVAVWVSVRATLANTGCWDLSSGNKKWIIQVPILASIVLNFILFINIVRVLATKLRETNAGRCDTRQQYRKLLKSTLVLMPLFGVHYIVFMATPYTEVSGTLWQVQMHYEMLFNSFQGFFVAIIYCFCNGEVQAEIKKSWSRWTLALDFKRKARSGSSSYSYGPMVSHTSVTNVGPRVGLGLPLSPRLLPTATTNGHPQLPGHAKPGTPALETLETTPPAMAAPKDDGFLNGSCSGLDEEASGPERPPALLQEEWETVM
Description: (§1) DMEM, Trypsin/EDTA, and penicillin G/streptomycin and horse serum were from Gibco/BRL, Life Technologies, Gaithersburg, Md. LLC-PK, expressing the recombinant human PTH1R (HKrk-B7 cells) and SaOS-2 cells expressing the wild-type PTH1R endogenously were cultured in DMEM supplemented with 10% heat-inactivated fetal bovine serum, 100 U/ml penicillin, 100 μg/ml streptomycin, as previously described (Gardella, T. J., et al., J. Biol. Chem. 271:19888-19893 (1996); Fukayama, S., et al., Endocrinology 134:1851-1858 (1994)); both cell lines were maintained in a humidified atmosphere containing 95% air and 5% CO2. After seeding, medium was replaced daily, until cells were used for radioligand binding or cAMP accumulation assays.
(§2) Na^125I (specific activity: 2,000 Ci/mmol) was purchased from DuPont/NEN, Boston, Mass. Fetal bovine serum, 3-isobutyl-1-methyl-xanthine (IBMX), and BSA were from Sigma, St. Louis, Mo., and trifluoroacetic acid (TFA) was from Pierce, Rockford, Ill. Radiolabeled rPTH(1-34) and PTHrP(1-36) were prepared by the chloramine-T method, followed by HPLC purification using a 30-50% ACN/0.1% TFA gradient over 30 minutes; radioreceptor assays were performed in 24-well plates as previously described (Gardella, T. J., et al., J. Biol. Chem. 271:19888-19893 (1996); Fukayama, S. et al., Endocrinology 134:1851-1858 (1994)). In brief, each well (final volume 500 μl) contained binding buffer (BB; 50 mM Tris-HCl (pH 7.7), 100 mM NaCl, 5 mM KCl, 2 mM CaCl2, 5% heat-inactivated horse serum, and 0.5% heat-inactivated fetal bovine serum), the ^125I-labeled PTH or PTHrP analog (100,000 to 200,000 cpm) was incubated in the absence or presence of increasing concentrations of unlabeled peptides. After 4 h at 16° C., buffer was completely removed, the cells were rinsed with cold BB and lysed with 1 M NaOH. The entire lysate was counted for γ-irradiation. Specific binding was determined after subtracting radioactivity bound in the presence of maximal concentrations of unlabeled competing peptide (10^−6 M). Agonist-dependent stimulation of cAMP accumulation by HKrk-B7 and SaOS-2 cells (48-well plates; stimulation at room temperature for 45 minutes) and the subsequent measurement of cAMP by radioimmunoassay was performed as previously described (Gardella, T. J., et al., J. Biol. Chem. 271:19888-19893 (1996); Bergwitz, C., et al., Endocrinology 139:723-732 (1998)). Data were analyzed and graphically illustrated using the graph-pad prism software package.
The values for EC50 and Vmax (mean±SE) are derived from at least three independent experiments.

endogenous PTH1R = target: T2, endogenous PTH1R (Homo sapiens, UniProt Q03431); experiment: Ligand-stimulated cAMP accumulation in SaOS-2 cells; format: cell-based
T2 construct: SaOS-2 cells expressing the wild-type PTH1R endogenously; endogenous in cells; host or cells: SaOS-2 human osteosarcoma cells
T2 sequence (Q03431 27-593): T1 sequence (Q03431 27-593)
Description: as §1
as §2, with “After 4 h at 16° C., buffer was completely removed, the cells were rinsed with cold BB and lysed with 1 M NaOH.” left out, “Agonist-dependent stimulation of cAMP accumulation by HKrk-B7 and SaOS-2 cells (48-well plates; stimulation at room temperature for 45 minutes) and the subsequent measurement of cAMP by radioimmunoassay was performed as previously described (Gardella, T. J., et al., J. Biol. Chem. 271:19888-19893 (1996); Bergwitz, C., et al., Endocrinology 139:723-732 (1998)).” left out, “package. […]” for “package.”

PTH1R [2] = target: T1, PTH1R; experiment: Radioreceptor binding assay with HKrk-B7 cells; set-up: expressed in transfected cells
Description: as §1, §2
The binding properties of these peptides were evaluated in radioreceptor assays with HKrk-B7 cells, which express the PTH IR at high density (approximately […]) (Carter, P. H., et al., Endocrinology 140:4972-4981 (1999)), using either radiolabeled rPTH(1-34) or PTHrP(1-36).
The calculated IC50 values (mean±SE) are derived from at least three independent experiments.

[3] = target: T3, human PTH/PTHrP receptor (PTH1R) (human, UniProt Q03431 27-593); experiment: cell-based or functional assay
T3 sequence (looked up): T1 sequence (Q03431 27-593)

[4] = target: T3, human PTH/PTHrP receptor (PTH1R); experiment: radioreceptor competition on HKrk-B7 cells; tracer 125I-[Tyr36]PTHrP(1-36)amide
Description: (§3) Na¹²⁵I (specific activity: 2,000 Ci/mmol) was purchased from DuPont/NEN, Boston, Mass. Fetal bovine serum, 3-isobutyl-1-methyl-xanthine (IBMX), and BSA were from Sigma, St. Louis, Mo., and trifluoroacetic acid (TFA) was from Pierce, Rockford, Ill. […] After 4 h at 16° C., buffer was completely removed, the cells were rinsed with cold BB and lysed with 1 M NaOH. The entire lysate was counted for γ-irradiation. Specific binding was determined after subtracting radioactivity bound in the presence of maximal concentrations of unlabeled competing peptide (10⁻⁶ M). Agonist-dependent stimulation of cAMP accumulation by HKrk-B7 and SaOS-2 cells (48-well plates; stimulation at room temperature for 45 minutes) and the subsequent measurement of cAMP by radioimmunoassay was performed as previously described (Gardella, T. J., et al., J. Biol. Chem. 271:19888-19893 (1996); Bergwitz, C., et al., Endocrinology 139:723-732 (1998)). Data were analyzed and graphically illustrated using the graph-pad prism software package.

[5] = target: T3, human PTH/PTHrP receptor (PTH1R); experiment: radioreceptor competition on HKrk-B7 cells; tracer 125I-rat [Nle8,21,Tyr34]PTH(1-34)amide
Description: as §3

[6] = maximal cAMP accumulation, mean±SE

Vmax (efficacy) of cAMP accumulation (endogenous PTH1R; SaOS-2 cells): 31±3 pmol/well
SaOS-2 Maxobs (endogenous PTH1R; [6]): 31 ± 3 pmol/48-well
binding affinity higher than that of PTHrP(1-36) (PTH1R [2]): 2- to 4 fold
binding affinity weaker than that of PTH(1-34) (PTH1R [2]): 3- to 4 fold
improvement in apparent binding affinity (IC50) relative to TIP(1-39) (PTH1R [2]; either radioligand): 8- to 19 fold
Vmax (efficacy) of cAMP accumulation (PTH1R [1]; HKrk-B7 cells): 39±8 pmol/well
stimulation of cAMP accumulation at the PTH1R (in words) (PTH1R [1]; HKrk-B7 cells): full and potent agonist
HKrk-B7 Maxobs (PTH1R [1]; [6]): 39 ± 8 pmol/48-well
Molecule: CC[C@H](C)[C@H](NC(=O)[C@H](CO)NC(=O)[C@H](CCCCN)NC(=O)CNC(=O)[C@H](CCCCN)NC(=O)[C@H](CC(=O)O)NC(=O)[C@H](Cc1c[nH]cn1)NC(=O)[C@H](CC(C)C)NC(=O)[C@H](CC(C)C)NC(=O)[C@H](CCC(N)=O)NC(=O)[C@H](Cc1c[nH]cn1)NC(=O)[C@H](CCC(=O)O)NC(=O)[C@H](CO)NC(=O)[C@@H](NC(=O)[C@H](C)N)C(C)C)C(=O)N[C@@H](CCC(N)=O)C(=O)N[C@@H](CC(=O)O)C(=O)N[C@@H](CC(C)C)C(=O)N[C@@H](CCCNC(=N)N)C(=O)N[C@@H](CCCNC(=N)N)C(=O)N[C@@H](CCCNC(=N)N)C(=O)N[C@@H](Cc1c[nH]cn1)C(=O)N[C@@H](Cc1c[nH]c2ccccc12)C(=O)N[C@@H](CC(C)C)C(=O)N[C@@H](CC(N)=O)C(=O)N[C@@H](CO)C(=O)N[C@@H](Cc1ccc(O)cc1)C(=O)N[C@@H](CCSC)C(=O)N[C@@H](Cc1c[nH]cn1)C(=O)N[C@@H](CCCCN)C(=O)N[C@@H](CC(C)C)C(=O)N[C@@H](CC(C)C)C(=O)N[C@H](C(=O)N[C@@H](CC(C)C)C(=O)N[C@@H](CC(=O)O)C(=O)N[C@@H](C)C(=O)N1CCC[C@H]1C(N)=O)C(C)C [PTHrP(1-20)/TIP(23-39)] (H-AVSEHQLLHDKGKSIQDLRRRHWLNSYMHKLLVLDAP-NH2)

stimulation of cAMP accumulation at the PTH1R (in words) (PTH1R [1]; HKrk-B7 cells): lack of second messenger formation
Molecule: TIP(19-39): TIP39 analog truncated at the amino-terminus, residues 19-39, bovine sequence (ALERRHWLNSYMHKLLVLDAP)
inhibition of radioligand binding to the PTH1R (in words) (PTH1R [2]; either radioligand): did not inhibit the binding of either radioligand; also recorded: no detectable binding

increase in cAMP accumulation over basal (PTH1R [1]; HKrk-B7 cells, high molar concentrations): ~2 fold over basal
Molecule: TIP(23-39): TIP39 analog truncated at the amino-terminus, residues 23-39, bovine sequence (RHWLNSYMHKLLVLDAP)
inhibition of radioligand binding to the PTH1R (in words) (PTH1R [2]; either radioligand): did not inhibit the binding of either radioligand; also recorded: no detectable binding

EC50 of cAMP accumulation, SaOS-2 cells [3]: 0.3 nM
Molecule: SVSEIQLMHNLGKHLNSMERVEWLRKKLQDVHNY (not fully specified (C-terminus)) [[Tyr^34] human PTH(1-34)amide]

IC50 [4]: 11 nM
IC50 [5]: 31 nM
EC50 of cAMP accumulation, HKrk-B7 cells [3]: 1.4 nM
EC50 of cAMP accumulation, SaOS-2 cells [3]: 0.38 nM
Molecule: H-AVSEHQLLHDKGKSIQDLRRRHWLNSYMHKLLVLDAP-NH2 (also called PTHrP/TIP chimera) [PTHrP(1-20)/TIP(23-39)]

The remaining lines, values behind:

Molecule: [Ile^7]TIP(1-39): TIP(1-39) having Asp7 replaced by the corresponding isoleucine of PTH (SLALADIAAFRERARLLAALERRHWLNSYMHKLLVLDAP)
stimulation of cAMP accumulation at the PTH1R (in words) (PTH1R [1]; HKrk-B7 cells): None of these peptides, however, stimulated cAMP formation; also recorded: no activation of the PTH1R

Molecule: PTHrP(1-6)/TIP(9-39): chimera of human PTHrP residues 1-6 and bovine TIP residues 9-39
stimulation of cAMP accumulation at the PTH1R (in words) (PTH1R [1]; HKrk-B7 cells): None of these peptides, however, stimulated cAMP formation; also recorded: lack of PTH1R activation

Molecule: PTHrP(1-20)amide (AVSEHQLLHDKGKSIQDLRR-NH2) [reference compound]
inhibition of radioligand binding to the PTH1R (in words) (PTH1R [2]; either radioligand): did not inhibit the binding of either radioligand

Molecule: CSCC[C@H](NC(=O)[C@H](Cc1ccc(O)cc1)NC(=O)[C@H](CO)NC(=O)[C@H](CC(N)=O)NC(=O)[C@H](CC(C)C)NC(=O)[C@H](Cc1c[nH]c2ccccc12)NC(=O)[C@H](Cc1c[nH]cn1)NC(=O)[C@H](CCCNC(=N)N)NC(=O)[C@H](CCCNC(=N)N)NC(=O)[C@H](CCC(=O)O)NC(=O)[C@H](CC(C)C)NC(=O)[C@H](C)NC(=O)[C@H](C)NC(=O)[C@H](CC(C)C)NC(=O)[C@H](CC(C)C)NC(=O)[C@H](CCCNC(=N)N)NC(=O)[C@H](C)NC(=O)[C@H](CCCNC(=N)N)NC(=O)[C@H](CCC(=O)O)NC(=O)[C@H](CCCNC(=N)N)NC(=O)[C@H](Cc1ccccc1)NC(=O)[C@H](C)NC(=O)[C@H](C)NC(=O)[C@H](CC(=O)O)NC(=O)[C@H](CC(=O)O)NC(=O)[C@H](C)NC(=O)[C@H](CC(C)C)NC(=O)[C@H](C)N)C(=O)N[C@@H](Cc1c[nH]cn1)C(=O)N[C@@H](CCCCN)C(=O)N[C@@H](CC(C)C)C(=O)N[C@@H](CC(C)C)C(=O)N[C@H](C(=O)N[C@@H](CC(C)C)C(=O)N[C@@H](CC(=O)O)C(=O)N[C@@H](C)C(=O)N1CCC[C@H]1C(N)=O)C(C)C [TIP(3-39)] (H-ALADDAAFRERARLLAALERRHWLNSYMHKLLVLDAP-NH2)
stimulation of cAMP accumulation at the PTH1R (in words) (PTH1R [1]; HKrk-B7 cells): lack of second messenger formation; also recorded: failed to stimulate cAMP accumulation
